From PMC3999280 come the findings set out here.

Data set [1] addresses LdtRLas (LdtR from 'Candidatus Liberibacter asiaticus', […]_01180) ('Candidatus Liberibacter asiaticus' str. psy62). Briefly: SEC. On the technique in general: SEC sorts molecules by how far they enter the pores of the column.
The target in data set [2] is LdtRLas ('Candidatus Liberibacter asiaticus') (UniProt A0ABN4AZS1). The experiment in a line: EMSA. Conditions: EMSA: 50 mM Tris-HCl pH 7.2, 150 mM KCl, 10 mM MgCl2, 0.01% Triton X-100, 12.5 ng/uL each poly(dI-dC) and poly(dA-dT), 1 ng probe in 20 uL, 20 min at 37 C; 6% …. On the technique in general: In EMSA bound probe runs differently from free probe, usually more slowly.

As usually defined, the stoichiometry N is the number of molecules, sites or subunits per partner or assembly. “LdtRLas (LdtR from 'Candidatus Liberibacter asiaticus', […]_01180) (natural protein)” displayed a stoichiometry N in data set [1] of 2.

Take PldtP (PldtPLas): the K half in data set [2] worked out at 100 nM.
